Source: patent publication US20250108100A1, “C-TERMINAL FRAGMENT OF APOLIPOPROTEIN E AND APPLICATION THEREOF IN INHIBITING y-SECRETASE ACTIVITY” (SYNPHATEC (SHANGHAI) BIOPHARMACEUTICAL TECHNOLOGY CO., LTD., priority 2022, published 2025)

Biological target: purified human γ-secretase (NCT-V5-6×His; FLAG-PEN2; APH; PS1) (human) (UniProt Q92542)
Assay: cell-based or functional assay

Sequence of ApoE2-3×FLAG (purified) (P02649 19-317 R176C): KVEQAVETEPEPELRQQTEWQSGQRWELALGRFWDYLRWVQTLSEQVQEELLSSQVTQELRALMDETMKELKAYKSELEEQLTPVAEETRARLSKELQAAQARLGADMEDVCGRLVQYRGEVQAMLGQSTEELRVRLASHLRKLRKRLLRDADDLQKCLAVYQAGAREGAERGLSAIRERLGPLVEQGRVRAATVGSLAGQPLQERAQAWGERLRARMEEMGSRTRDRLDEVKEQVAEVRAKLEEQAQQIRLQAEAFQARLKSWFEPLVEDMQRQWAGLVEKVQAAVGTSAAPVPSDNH

Question: Which IC50 for Aβ production on co-incubation of purified β-CTF and γ-secretase with a concentration series of ApoE2 (ELISA) does the source give for “ApoE2-3×FLAG (purified) (from UniProt P02649 19-317)” here?
Answer: 1.2 µM

Question: And the half-inhibitory concentration (IC50) for Aβ40 production from purified β-CTF by purified γ-secretase (ELISA)?
Answer: 1.2 µM
